According to the Immune Epitope Database (IEDB):

Assays:
HLA-A*01:01 [1] = test: IEDB peptide-MHC binding, purified MHC/direct/fluorescence; filed as Kd, often an IC50 or EC50 that approximates it; ≥ and ≤ were set here for values at or beyond the usual limits of such assays
HLA-A*02:03 [2] = test: as above; conditions: source organism: Lechiguanas virus
HLA-A*02:12 = test: as above; conditions: source organism: Lechiguanas virus
HLA-A*02:19 = test: as above; conditions: source organism: Lechiguanas virus
HLA-A*03:01 [3] = test: as above
HLA-A*23:01 = test: as above; conditions: source organism: Lechiguanas virus
HLA-A*24:03 = test: as above
HLA-A*68:02 = test: as above; conditions: source organism: Lechiguanas virus
HLA-A*02:01 [4] = test: IEDB peptide-MHC binding, purified MHC/competitive/fluorescence; filed as Kd, often an IC50 or EC50 that approximates it; ≥ and ≤ were set here for values at or beyond the usual limits of such assays; conditions: source organism: Neembucu hantavirus
HLA-A*26:01 [5] = test: as above
HLA-B*15:17 = test: as above; conditions: source organism: Neembucu hantavirus
HLA-B*18:01 = test: as above; conditions: source organism: Neembucu hantavirus
HLA-B*27:03 = test: as above; conditions: source organism: Neembucu hantavirus
HLA-B*39:01 = test: as above
HLA-B*46:01 = test: as above; conditions: source organism: Neembucu hantavirus
HLA-B*51:01 = test: as above; conditions: source organism: Neembucu hantavirus
HLA-B*57:01 = test: as above; conditions: source organism: Neembucu hantavirus
HLA-B*40:01 [6] = test: as above
HLA-A*01:01 [7] = test: as above
HLA-A*30:01 [8] = test: as above; conditions: source organism: Encephalitozoon cuniculi GB-M1
HLA-B*15:01 [9] = test: IEDB peptide-MHC binding, purified MHC/direct/fluorescence; filed as Kd, often an IC50 or EC50 that approximates it; ≥ and ≤ were set here for values at or beyond the usual limits of such assays
HLA-B*58:01 [10] = test: IEDB peptide-MHC binding, purified MHC/competitive/fluorescence; filed as Kd, often an IC50 or EC50 that approximates it; ≥ and ≤ were set here for values at or beyond the usual limits of such assays
HLA-A*02:01 [11] = test: IEDB peptide-MHC binding, purified MHC/direct/fluorescence; filed as Kd, often an IC50 or EC50 that approximates it; ≥ and ≤ were set here for values at or beyond the usual limits of such assays
HLA-A*11:01 = test: as above
HLA-A*26:01 [12] = test: as above
HLA-A*30:01 [13] = test: as above
HLA-A*31:01 = test: as above
HLA-A*69:01 = test: as above
HLA-B*07:02 = test: as above
HLA-B*08:01 = test: as above
HLA-B*27:05 = test: as above
HLA-B*35:01 = test: as above
HLA-B*40:01 [14] = test: as above
HLA-B*44:02 = test: as above
HLA-B*58:01 [15] = test: as above
HLA-A*03:01 [16] = test: IEDB peptide-MHC binding, purified MHC/competitive/fluorescence; filed as Kd, often an IC50 or EC50 that approximates it; ≥ and ≤ were set here for values at or beyond the usual limits of such assays; conditions: source organism: Yersinia pestis Nepal516
HLA-B*15:01 [17] = test: as above; conditions: source organism: Yersinia pestis Nepal516
HLA-A*02:01 [18] = test: IEDB peptide-MHC binding, purified MHC/competitive/radioactivity; filed as Kd, often an IC50 or EC50 that approximates it; ≥ and ≤ were set here for values at or beyond the usual limits of such assays; conditions: source organism: Dengue virus 3 China/80-2/1980
HLA-A*02:17 = test: as above; conditions: source organism: Dengue virus 3 China/80-2/1980
HLA-A*02:03 [19] = test: as above; conditions: source organism: Dengue virus 3 Martinique/1243/1999
HLA-A*02:06 = test: as above; conditions: source organism: Dengue virus 3 Martinique/1243/1999
HLA-A*32:01 = test: as above; conditions: source organism: Dengue virus 3 Singapore/8120/1995
[20] = source organism: Neembucu hantavirus
[21] = source organism: Lechiguanas virus
[22] = source organism: Escherichia coli 101-1
[23] = source organism: Yersinia pestis Nepal516
[24] = source organism: Salmonella enterica subsp. enterica serovar Typhi
[25] = source organism: Vibrio cholerae
[26] = source organism: Vibrio vulnificus
[27] = source organism: Corynebacterium glutamicum

Sequence: ETESATLFT
- Kd (HLA-A*01:01 [1]; [20]): 0.592 µM
- Kd (HLA-A*02:03 [2]): ≥ 20 µM
- Kd (HLA-A*02:12): ≥ 20 µM
- Kd (HLA-A*02:19): ≥ 20 µM
- Kd (HLA-A*03:01 [3]; [21]): ≥ 20 µM
- Kd (HLA-A*23:01): ≥ 20 µM
- Kd (HLA-A*24:03; [21]): ≥ 20 µM
- Kd (HLA-A*68:02): ≥ 20 µM
- Kd (HLA-A*02:01 [4]): ≥ 20 µM
- Kd (HLA-A*26:01 [5]; [20]): ≥ 20 µM
- Kd (HLA-B*15:17): ≥ 20 µM
- Kd (HLA-B*18:01): ≥ 20 µM
- Kd (HLA-B*27:03): ≥ 20 µM
- Kd (HLA-B*39:01; [20]): ≥ 20 µM
- Kd (HLA-B*46:01): ≥ 20 µM
- Kd (HLA-B*51:01): ≥ 20 µM
- Kd (HLA-B*57:01): ≥ 20 µM

Sequence: FEANALSVI
- Kd (HLA-B*39:01; [22]): 3.82 µM
- Kd (HLA-B*40:01 [6]; [22]): 0.0097 µM

Sequence: GEMLVATSL
- Kd (HLA-B*40:01 [6]; [23]): 0.0042 µM

Sequence: GEVRGYLVK
- Kd (HLA-B*40:01 [6]; source organism: Escherichia coli O139:H28 str. E24377A): ≥ 20 µM

Sequence: GGRKLKLTK
- Kd (HLA-A*01:01 [7]; source organism: Encephalitozoon cuniculi GB-M1): ≥ 20 µM
- Kd (HLA-A*30:01 [8]): 0.246 µM

Sequence: HEAEYNLSL
- Kd (HLA-B*39:01; [24]): 0.0019 µM
- Kd (HLA-B*40:01 [6]; [24]): 0.0046 µM

Sequence: IASLTGWQW
- Kd (HLA-B*15:01 [9]; source organism: Mycobacterium tuberculosis str. Haarlem): 16 µM
- Kd (HLA-B*58:01 [10]; source organism: Mycobacterium tuberculosis variant bovis BCG str. Pasteur 1173P2): 0.0006 µM

Sequence: IELITTIGF
- Kd (HLA-B*40:01 [6]; source organism: Bacillus cereus 03BB102): 0.0532 µM

Sequence: IPISGRITA
- Kd (HLA-A*01:01 [1]; [25]): ≥ 20 µM
- Kd (HLA-A*02:01 [11]; [25]): ≥ 20 µM
- Kd (HLA-A*03:01 [3]; [25]): ≥ 20 µM
- Kd (HLA-A*11:01; [25]): ≥ 20 µM
- Kd (HLA-A*24:03; [25]): ≥ 20 µM
- Kd (HLA-A*26:01 [12]; [25]): ≥ 20 µM
- Kd (HLA-A*30:01 [13]; [25]): ≥ 20 µM
- Kd (HLA-A*31:01; [25]): ≥ 20 µM
- Kd (HLA-A*69:01; [25]): ≥ 20 µM
- Kd (HLA-B*07:02; [25]): 0.0244 µM
- Kd (HLA-B*08:01; [25]): ≥ 20 µM
- Kd (HLA-B*15:01 [9]; [25]): ≥ 20 µM
- Kd (HLA-B*27:05; [25]): ≥ 20 µM
- Kd (HLA-B*35:01; [25]): 0.0172 µM
- Kd (HLA-B*40:01 [14]; [25]): ≥ 20 µM
- Kd (HLA-B*44:02; [25]): ≥ 20 µM
- Kd (HLA-B*58:01 [15]; [25]): ≥ 20 µM

Sequence: KTAVVVTRY
- Kd (HLA-A*01:01 [7]; [23]): 0.455 µM
- Kd (HLA-A*03:01 [16]): 0.676 µM
- Kd (HLA-B*15:01 [17]): 0.674 µM
- Kd (HLA-B*58:01 [10]; [23]): 0.0362 µM

Sequence: KVMALPIPH
- Kd (HLA-A*01:01 [1]; [26]): ≥ 20 µM
- Kd (HLA-A*02:01 [11]; [26]): ≥ 20 µM
- Kd (HLA-A*03:01 [3]; [26]): 0.174 µM
- Kd (HLA-A*11:01; [26]): 0.0247 µM
- Kd (HLA-A*24:03; [26]): ≥ 20 µM
- Kd (HLA-A*26:01 [12]; [26]): ≥ 20 µM
- Kd (HLA-A*30:01 [13]; [26]): 5.28 µM
- Kd (HLA-A*31:01; [26]): 0.136 µM
- Kd (HLA-A*69:01; [26]): ≥ 20 µM
- Kd (HLA-B*07:02; [26]): 9.25 µM
- Kd (HLA-B*08:01; [26]): ≥ 20 µM
- Kd (HLA-B*15:01 [9]; [26]): 0.452 µM
- Kd (HLA-B*27:05; [26]): ≥ 20 µM
- Kd (HLA-B*35:01; [26]): 0.374 µM
- Kd (HLA-B*40:01 [14]; [26]): ≥ 20 µM
- Kd (HLA-B*44:02; [26]): ≥ 20 µM
- Kd (HLA-B*58:01 [15]; [26]): ≥ 20 µM

Sequence: LLLGLMILLT
- Kd (HLA-A*02:01 [18]): 1.66 µM
- Kd (HLA-A*02:17): 0.697 µM

Sequence: MSLMTGEQF
- Kd (HLA-B*58:01 [10]; source organism: Bacillus anthracis str. A0488): 0.0165 µM

Sequence: RLITANPVV
- Kd (HLA-A*02:03 [19]): 0.0363 µM
- Kd (HLA-A*02:06): 0.0651 µM
- Kd (HLA-A*02:17): 0.52 µM

Sequence: RTLDTLALY
- Kd (HLA-A*01:01 [7]; [23]): 1.21 µM
- Kd (HLA-A*03:01 [16]): 0.132 µM
- Kd (HLA-A*26:01 [5]; [23]): 4.5 µM
- Kd (HLA-B*58:01 [10]; [23]): 0.0084 µM

Sequence: VETYVLSII
- Kd (HLA-B*40:01 [6]; source organism: Influenza A virus (A/parakeet/Chiba/1/97(H9N2))): 0.013 µM

Sequence: VLFTFVLLL
- Kd (HLA-A*02:17): 0.568 µM
- Kd (HLA-A*32:01): 0.494 µM

Sequence: YELLRYNEY
- Kd (HLA-A*01:01 [1]; [27]): ≥ 20 µM
- Kd (HLA-A*02:01 [11]; [27]): ≥ 20 µM
- Kd (HLA-A*03:01 [3]; [27]): ≥ 20 µM
- Kd (HLA-A*11:01; [27]): ≥ 20 µM
- Kd (HLA-A*24:03; [27]): ≥ 20 µM
- Kd (HLA-A*26:01 [12]; [27]): ≥ 20 µM
- Kd (HLA-A*30:01 [13]; [27]): ≥ 20 µM
- Kd (HLA-A*31:01; [27]): ≥ 20 µM
- Kd (HLA-A*69:01; [27]): ≥ 20 µM
- Kd (HLA-B*08:01; [27]): ≥ 20 µM
- Kd (HLA-B*15:01 [9]; [27]): 0.443 µM
- Kd (HLA-B*27:05; [27]): ≥ 20 µM
- Kd (HLA-B*35:01; [27]): 0.777 µM
- Kd (HLA-B*40:01 [14]; [27]): 14.3 µM
- Kd (HLA-B*58:01 [15]; [27]): ≥ 20 µM
